{"source": "patent US20220315663A1", "about": "(published 2022)", "binders": {"B1": {"name": "C923B38 (trispecific antibody, human IgG1, kappa, L234A L235A)", "heavy": "QVQLQESGPGLVKPSETLSLTCSVSGASISSFYWSWIRQPADEGLEWIGRISPSGKTNYIPSLKSRIIMSLDASKNQFSLRLNSVTAADTAMYYCARGEYSGTYSYSFDVWGQGTMVTVSSASTKGPSVFPLAPSSKSTSGGTAALGCLVKDYFPEPVTVSWNSGALTSGVHTFPAVLQSSGLYSLSSVVTVPSSSLGTQTYICNVNHKPSNTKVDKKVEPKSCDKTHTCPPCPAPEAAGGPSVFLFPPKPKDTLMISRTPEVTCVVVSVSHEDPEVKFNWYVDGVEVHNAKTKPREEQYNSTYRVVSVLTVLHQDWLNGKEYKCKVSNKALPAPIEKTISKAKGQPREPQVYTLPPSREEMTKNQVSLSCAVKGFYPSDIAVEWESNGQPENNYKTTPPVLDSDGSFFLVSKLTVDKSRWQQGNVFSCSVMHEALHNRFTQKSLSLSPGK", "light": "DIVMTQSPLSLSVTPGEPASISCRSSESLLDSEDGNTYLDWFLQKPGQSPQLLIYTLSYRASGVPDRFSGSGSDTDFTLHISSLEAEDVGLYYCMQRMEFPLTFGQGTKVEIKRTVAAPSVFIFPPSDEQLKSGTASVVCLLNNFYPREAKVQWKVDNALQSGNSQESVTEQDSKDSTYSLSSTLTLSKADYEKHKVYACEVTHQGLSSPVTKSFNRGEC", "chain": "EIVLTQSPATLSASPGERVTLSCSASSSVSYMNWYQQKPGQAPRRWIYDSSKLASGVPARFSGSGSGRDYTLTISSLEPEDFAVYYCQQWSRNPPTFGGGTKVEIKGGSEGKSSGSGSESKSTGGSQVQLVQSGAEVKKPGSSVKVSCKASGYTFTRSTMHWVKQAPGQGLEWIGYINPSSAYTNYNQKFQGRVTLTADKSTSTAYMELSSLRSEDTAVYYCASPQVHYDYAGFPYWGQGTLVTVSSEPKSSDKTHTCPPCPAPEAAGGPSVFLFPPKPKDTLMISRTPEVTCVVVSVSHEDPEVKFNWYVDGVEVHNAKTKPREEQYNSTYRVVSVLTVLHQDWLNGKEYKCKVSNKALPAPIEKTISKAKGQPREPQVYTLPPSREEMTKNQVSLWCLVKGFYPSDIAVEWESNGQPENNYKTTPPVLDSDGSFFLYSKLTVDKSRWQQGNVFSCSVMHEALHNHYTQKSLSLSPGKGGSEGKSSGSGSESKSTGGSAIQLTQSPSSLSASVGDRVTITCRASSSVSYIHWFQQKPGKAPKPLIYATSNLASGVPSRFSGSGSGTDFTLTISSLQPEDFATYYCQQWTSNPPTFGQGTKLEIKGGSEGKSSGSGSESKSTGGSQVQLVQSGAEVKKPGSSVKVSCKASGYTFTSYNMHWVRQAPGQGLEWMGAIYPGNGDTSYAQKFQGRVTITADKSTSTAYMELSSLRSEDTAVYYCARSTYYGGDWYFNVWGQGTLVTVSS", "notes": "IgG1 trispecific: Fab to CD79b; second chain carries the CD3 scFv, the Fc and the CD20 scFv; also called CD79b×CD20×CD3 trispecific antibody"}}, "molecular_target": "T1, cynomolgus monkey CD79b antigen (cynomolgus monkey)", "T1 construct": "also called cyno CD79b; CD9W1.001", "assay": "SPR, cyno CD79b against human CD79b (refers to Table 32)", "data": [{"binder": "B1", "values": [{"measurement": "fold weaker affinity compared to human", "value": "> 10000", "unit": "fold"}]}]}
